Reference: IntAct's records for PubMed 17586626

B1: Multidrug resistance protein MexB (Pseudomonas aeruginosa (strain ATCC 15692 / PAO1 / 1C / PRS 101 / LMG 12228)), P52002 (parent)
chain: MSKFFIDRPIFAWVIALVIMLAGGLSILSLPVNQYPAIAPPAIAVQVSYPGASAETVQDTVVQVIEQQMNGIDNLRYISSESNSDGSMTITVTFEQGTDPDIAQVQVQNKLQLATPLLPQEVQRQGIRVTKAVKNFLMVVGVVSTDGSMTKEDLSNYIVSNIQDPLSRTKGVGDFQVFGSQYSMRIWLDPAKLNSYQLTPGDVSSAIQAQNVQISSGQLGGLPAVKGQQLNATIIGKTRLQTAEQFENILLKVNPDGSQVRLKDVADVGLGGQDYSINAQFNGSPASGIAIKLATGANALDTAKAIRQTIANLEPFMPQGMKVVYPYDTTPVVSASIHEVVKTLGEAILLVFLVMYLFLQNFRATLIPTIAVPVVLLGTFGVLAAFGFSINTLTMFGMVLAIGLLVDDAIVVVENVERVMAEEGLSPREAARKSMGQIQGALVGIAMVLSAVFLPMAFFGGSTGVIYRQFSITIVSAMALSVIVALILTPALCATMLKPIEKGDHGEHKGGFFGWFNRMFLSTTHGYERGVASILKHRAPYLLIYVVIVAGMIWMFTRIPTAFLPDEDQGVLFAQVQTPPGSSAERTQVVVDSMREYLLEKESSSVSSVFTVTGFNFAGRGQSSGMAFIMLKPWEERPGGENSVFELAKRAQMHFFSFKDAMVFAFAPPSVLELGNATGFDLFLQDQAGVGHEVLLQARNKFLMLAAQNPALQRVRPNGMSDEPQYKLEIDDEKASALGVSLADINSTVSIAWGSSYVNDFIDRGRVKRVYLQGRPDARMNPDDLSKWYVRNDKGEMVPFNAFATGKWEYGSPKLERYNGVPAMEILGEPAPGLSSGDAMAAVEEIVKQLPKGVGYSWTGLSYEERLSGSQAPALYALSLLVVFLCLAALYESWSIPFSVMLVVPLGVIGALLATSMRGLSNDVFFQVGLLTTIGLSAKNAILIVEFAKELHEQGKGIVEAAIEACRMRLRPIVMTSLAFILGVVPLAISTGAGSGSQHAIGTGVIGGMVTATVLAIFWVPLFYVAVSTLFKDEASKQQASVEKGQ
partner: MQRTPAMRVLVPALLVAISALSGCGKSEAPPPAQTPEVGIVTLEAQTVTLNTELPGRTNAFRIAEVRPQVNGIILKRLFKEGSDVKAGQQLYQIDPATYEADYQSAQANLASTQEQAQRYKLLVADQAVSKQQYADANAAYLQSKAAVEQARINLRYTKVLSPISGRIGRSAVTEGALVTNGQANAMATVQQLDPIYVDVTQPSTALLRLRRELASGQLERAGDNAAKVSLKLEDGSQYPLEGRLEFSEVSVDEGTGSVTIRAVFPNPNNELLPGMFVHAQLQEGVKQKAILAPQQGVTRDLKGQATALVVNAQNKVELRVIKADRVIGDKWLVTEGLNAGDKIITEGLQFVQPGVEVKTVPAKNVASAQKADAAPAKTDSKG
B2: Multidrug resistance protein MexA (Pseudomonas aeruginosa (strain ATCC 15692 / PAO1 / 1C / PRS 101 / LMG 12228)), P52477 (parent)
chain: B1 partner
partner: B1 chain

Variants of: B1
Details: with mexa_pseae mexA, P52477

Variant	effect of a mutation on the interaction
G220S	decreasing interaction strength

Variants of: B2
Details: with mexb_pseae mexB, P52002

Variant	effect of a mutation on the interaction
V259F	increasing interaction strength
V66M	increasing interaction strength
